Reference: article PMC11757908

Target: trastuzumab (human)
Assay: charge-stabilized self-interaction nanoparticle spectroscopy

trastuzumab (antibody)
CS-SINS score: 0.1
